Where only a bound is given, the exact number is not on record here.

In data set [1] the test system is ORN differentiated from spheroid cultured progenitor cells. The experiment in a line: Calcium imaging assay of ORNs under odorant stimulation. As to conditions: for total calcium concentration stimulated by odor: odorant mixture. Format: cell-based, rat. The protocol:
To facilitate comparison with in vivo ORNs, the physiological properties of ORNs were validated using calcium imaging assays. The activity of the spheroid-cultured ORN progenitor cells was evaluated by transferring them to the laminin-coated plates, and measuring the change in fluorescence intensity by stimulating ORN activity with a mixture of odorant. In addition, the total-calcium concentration and response rate stimulated by odor were analyzed based on the results of calcium imaging.
Specifically, before performing the calcium imaging assay, the coverslip substrate was combined with a magnetic chamber (Live Cell instrument, Seoul, Korea), and the medium was replaced with KREBS Ringer's buffer containing 115 mM NaCl, 5.9 mM KCl, 2.5 mM CaCl2·2H2O, 1.2 mM MgCl2, 1.2 mM NaH2PO4, 10 mM HEPES sodium salt, and 10 mM D-glucose, and it was washed with PBS. Then, the cells were stained with fluo3-AM (life technologies, Waltham, USA). Fluorescence images of calcium markers were monitored using a confocal microscope. To stimulate the ORN, three odorants of 100 µM isovaleric acid (IVA), 2-isobutyl-3-methoxypyrazine (IBMP), and citralva, which are reported to activate the major signaling pathways of the ORN, and 100 µM of their mixture were applied to the magnetic chamber using a tubing connected to a syringe. The intracellular calcium concentration was calculated from the background corrected fluorescence ratio at 506/526 nm using a two-point calibration scheme and the equation [Ca]i=Kd(F0/Fs)(R−Rmin)/(Rmax−R).
Response rates were calculated as a ratio of the number of activated cell populations to the total number of cell populations in the confocal microscopy software.
Next, to determine the physiological properties of ORNs under single […] stimulation, the changes in intracellular calcium levels of ORNs and the changes in fluorescence intensity in cells a, b and c according to […] stimulation were monitored using 100 μM IBMP, 100 μM IVA, and 100 μM citralva.

Data set [2] has as its system rat ORN progenitor cells. The experiment in a line: Spheroid culture of ORN progenitor cells on REP-coated or laminin-coated plates (spheroid formation, diameter). Format: cell-based. The procedure:
For a comparison between the culture in a vessel coated with a recombinant protein (REP, TGPG[VGRGD(VGPVPG)6]20WPC) and culture in a vessel coated with laminin in whether neural stem cells are cultured into spheroids, the rat ORN progenitor cells primary cultured in Example 1-1 above were plated on REP-coated or laminin-coated cell culture plates.
Specifically, before plating the isolated ORN progenitor cells, 96-well plates (Thermo Scientific, Waltham, USA) were coated with 100 μl of 3 μM REP diluted with PBS, and they were cultured in the humidified 37° C. culture incubator containing 5% CO2 for 1 hour. The REP was prepared by the previously described method (Jeon W B, Park B H, Wei J, Park R W (2011) J Biomed Mater Res A 97 (2): 152-7). After culturing for 1 hour in the humidified incubator, the REP solution was aspirated, and 1×10^6 cells/ml of the isolated ORN progenitor cell suspension was placed and stored in the humidified incubator. MEM medium (Welgene, Gyeongsan, Republic of Korea) containing fresh 0.5% FBS (GE Healthcare lifesciences, Brussel, Belgium), 0.5% penicillin streptomycin (Thermo Fisher, Waltham, USA), kanamycin (SIGMA), and gentamicin (SIGMA) was replaced every 24 hours.
Next, in order to check the optimal conditions for spheroid formation, the diameter and shape of the spheroids were observed according to the seeding populations and the concentration of REP by measuring the diameter of the formed spheroids.

In data set [3] the test system is spheroid ORN progenitor cells. Briefly: qPCR of ORN developmental markers after differentiation of spheroid ORN progenitor cells on laminin-coated plate. In kind it is cell-based, rat. The protocol:
Spheroid ORN progenitor cells were differentiated and their developmental characteristics were monitored using qPCR and ICC.
Next, in order to analyze the differentiation of spheroid ORN progenitor cells in-depth, the transcriptional levels of ORN developmental markers such as ac3, omp, map2 and ncam, were analyzed by qPCR. Adenyl cyclase III (AC3), an important protein in the ORN, plays an important role in the olfactory signaling cascade. Olfactory marker protein (OMP) is also a protein found in fully matured ORNs. Microtubule associated protein 2 (MAP2) and NSE are expressed in differentiated neurons. Therefore, these markers were used as neuronal maturation markers. Neural cell adhesion molecule (NCAM) was used as a neural cell marker.
For orientation: Real-time PCR tracks product formation cycle by cycle.

Data set [4] concerns spheroid ORN progenitor cells. The experiment in a line: Calcein assay of cell viability of spheroid ORN progenitor cells. In kind it is cell-based, rat. As to conditions: plate coated with 3 μM REP. The protocol: Since it is essential for neural stem cells to maintain cell viability while cultured into spheroids, a calcein assay was performed to evaluate the viability of ORN progenitor cells cultured into spheroids according to the cultivation time.
Specifically, calcein assay reagent (calcein red-orange, AM; Invitrogen, Carlsbad, USA) is used to evaluate cell viability. Spheroid ORN progenitor cells were washed three times with Dulbecco's phosphate-buffered saline (DPBS; Gibco® by Life Technologies™, Waltham, USA), treated with 3 μM calcein-AM solution, and cultivated at 37° C. for 30 minutes. Cell viability in each well was quantified by measuring optical density at 517 nm with a fluorescence reader (Gemini EM; Molecular Devices, San Jose, USA). The total OD517mm value was normalized to the value measured in spheroid ORN progenitor cells on the first day, and the decrease in fluorescence intensity indicates decrease in viability according to environmental conditions and cell loss according to changes of culture media.

Data set [5] has as its system ORN differentiated from cryopreserved spheroid progenitor cells. Briefly: Cryopreservation, thawing and differentiation of spheroid ORN progenitor cells, calcium imaging. In kind it is cell-based, rat. As to conditions: 5 day spheroids cryopreserved 35 days, thawed on laminin. An excerpt: Since the neural stem cells cultured into spheroids need to be stably preserved for a long period of time for efficient use, in order to determine whether or not the cell storage period is extended through cryopreservation, spheroid-cultured ORN progenitor cells were cryopreserved for 35 days and thawed to test their physiological properties.

Data set [6] in a line: Surface properties of coated coverslips by AFM and SEM. Format: physicochemical. The procedure: In order to determine effects of the REP on spheroid formation, surface properties of REP-coated coverslips were observed using atomic force microscopy (AFM) and scanning electronic microscopy (SEM).
Specifically, for AFM and SEM image observation, glass coverslips were coated with 3 μM REP and 25 μg/ml laminin. To coat the coverslip with REP, 3 μM REP solution was poured onto the coverslip and incubated at 37° C. for 1 hour. Thereafter, the coverslip was washed three times with warmed autoclaved distilled water at 37° C. and dried in a hood. To prepare a laminin-coated coverslip, 25 μg/ml laminin was diluted with autoclaved distilled water and poured over the coverslip and the coverslip was stored at 37° C. overnight. Thereafter, the coverslip was washed three times with pressurized distilled water and dried with a critical point dryer (EM CPD 300; Leica, Wetzlar, Germany). AFM (XE-150; Park Systems, Suwon, Republic of Korea) was performed in non-contact mode with a scanning speed of 0.5 Hz. Before SEM observation, the coverslip was coated with osmium (Osmium plasma coater, Vacuum Devices Inc., Mito, Japan), and SEM was performed at a chamber pressure of […].

The test system of data set [7] is spheroid ORN progenitor cells. Briefly: qRT-PCR of stem cell markers in spheroid ORN progenitor cells. The note with it: REP-coated plates. Format: cell-based, rat. The protocol: In order to evaluate whether the spheroid-cultured ORN progenitor cells maintain a stemness, mRNA levels of stem cell markers were analyzed by quantitative real-time polymerase chain reaction (qRT-PCR). SOX2, Ki67, and nestin were used as specific marker genes for neural stem cells.
Specifically, total RNA was obtained from spheroid ORN progenitors using Trizol (Trizol® Reagent; Life technologies, Waltham, USA), and cDNA was synthesized by reverse transcription. qRT-PCR was performed under conditions of 40-45 repetitions at 95° C. for 30 sec, at 60° C. for 30 sec, and at 72° C. for 30 sec using a SYBR Green PCR Master Mix Kit (QuantiTect® SYBR® Green PCR Kit; QIAGEN, Hilden, Germany) on a Rotor-Gene Q (QIAGEN, Hilden, Germany). Primers of the sequences shown in Table 1 were purchased from GenoTeck (Daejeon, Korea) and Bionics (Daejeon, Korea). The housekeeping gene cyclophilin A was used as an internal standard.

Where [8] appears, read: day 3 spheroids, differentiated 72 hours on laminin-coated plate.

In the case of `COc1nccnc1CC(C)C` [IBMP, 2-isobutyl-3-methoxypyrazine, reference compound], the “activation of ORN cell a (intracellular calcium fluorescence)” value in data set [1] (single odorant, 100 μM) is “activated”.

For `CC(C)=CCCC(C)=CC#N` [citralva, reference compound], in data set [1] (single odorant, 100 μM), the “activation of ORN cell a (intracellular calcium fluorescence)” value is reported as “activated” and the “activation of ORN cell c (intracellular calcium fluorescence)” value is reported as “activated”.

As for laminin [reference compound], in data set [2] (plate coated with laminin), the “culture outcome on coated plate” value is “neurites outgrowth occurred and the cells were differentiated without spheroid culture”. Besides, in data set [3] (laminin group, days 3, 5 and 10), the “expression level of nsetin” value is given as “about 0.1 fold”.

`CC(C)CC(=O)O` [IVA, isovaleric acid, reference compound]: in data set [1] (single odorant, 100 μM), the “activation of ORN cell a (intracellular calcium fluorescence)” value is “activated”, the “activation of ORN cell b (intracellular calcium fluorescence)” value is given as “activated” and the “activation of ORN cell c (intracellular calcium fluorescence)” value was “activated”.

B1: TGPG[VGRGD(VGVPG)6]20WPC (protein)
chain: TGPGVGRGDVGVPGVGVPGVGVPGVGVPGVGVPGVGVPGVGRGDVGVPGVGVPGVGVPGVGVPGVGVPGVGVPGVGRGDVGVPGVGVPGVGVPGVGVPGVGVPGVGVPGVGRGDVGVPGVGVPGVGVPGVGVPGVGVPGVGVPGVGRGDVGVPGVGVPGVGVPGVGVPGVGVPGVGVPGVGRGDVGVPGVGVPGVGVPGVGVPGVGVPGVGVPGVGRGDVGVPGVGVPGVGVPGVGVPGVGVPGVGVPGVGRGDVGVPGVGVPGVGVPGVGVPGVGVPGVGVPGVGRGDVGVPGVGVPGVGVPGVGVPGVGVPGVGVPGVGRGDVGVPGVGVPGVGVPGVGVPGVGVPGVGVPGVGRGDVGVPGVGVPGVGVPGVGVPGVGVPGVGVPGVGRGDVGVPGVGVPGVGVPGVGVPGVGVPGVGVPGVGRGDVGVPGVGVPGVGVPGVGVPGVGVPGVGVPGVGRGDVGVPGVGVPGVGVPGVGVPGVGVPGVGVPGVGRGDVGVPGVGVPGVGVPGVGVPGVGVPGVGVPGVGRGDVGVPGVGVPGVGVPGVGVPGVGVPGVGVPGVGRGDVGVPGVGVPGVGVPGVGVPGVGVPGVGVPGVGRGDVGVPGVGVPGVGVPGVGVPGVGVPGVGVPGVGRGDVGVPGVGVPGVGVPGVGVPGVGVPGVGVPGAAAVGRGDAVGVPGVGVPGVGVPGVGVPGVGVPGVGVPGAAWPC
modifications: TGPG[VGRGD(VGVPG)6]20WPC
notes: recombinant elastin-derived protein with VGVPG pentapeptide and RGD integrin receptor ligand, used as culture vessel coating
Regarding B1, the results for the “fluorescence intensity (cell viability) normalized to first day” value in data set [4] (3rd day) and in data set [4] (10th day) were 1.05±0.03 times and 0.087±0.01 times, respectively. In addition, the spheroid diameter entry in data set [2] (1 μM REP coating) is listed as “approximately 20 μm”. Further, the spheroid morphology result in data set [2] (1 μM REP coating) was “unstable spheroid morphology and cell aggregation”. In addition, the “mean diameter of spheroids” value in data set [2] (1 μM REP coating, 24 hours after cell inoculation) is 24.2±0.7 μm; in data set [2] (3 μM REP coating, 3rd day), 77.5±3.3 μm; in data set [2] (3 μM REP coating, 24 hours after cell inoculation) it was 62.6±2.2 μm; in data set [2] (5 μM REP coating, 5th day) it was 69.4±3.6 μm; in data set [2] (5 μM REP coating, 24 hours after cell inoculation), 56.2±2.8 μm. For the same molecule, in data set [2] (plate coated with REP), the “time for ORN progenitor cells to aggregate to form spheroids” value is ≤ 24 h. In addition, the “expression level of ac3” value in data set [3] (setting [8]) amounted to 6.3±0.7 fold. In data set [3] (setting [8]), the “expression level of map2” value turned out to be 8.7±0.5 fold. Moreover, the “expression level of nse” value in data set [3] (setting [8]) was found to be 9.1±0.8 fold. In data set [3] (setting [8]), the “expression level of omp” value amounted to 6.3±0.7 fold. For the same molecule, the “response rate stimulated by odor, compared to day 5” value in data set [5] amounted to 72.3%. For the same molecule, in data set [5], the “total-calcium concentration stimulated by odor, compared to day 5” value is recorded as 72.5%. Moreover, in data set [6] (3 μM REP vs 25 μg/ml laminin), the “height and roughness relative to laminin-coated surface” value was determined as 23.8 times. Moreover, in data set [6] (coverslip coated with 3 μM REP), the “roughness (AFM)” value is on record as 148.3±15.9 nm. Further, the results for the “total calcium concentration stimulated by odor” value in data set [1] (ORNs spheroid cultured for 3 days), in data set [1] (ORNs spheroid cultured for 5 days) and in data set [1] (ORNs spheroid cultured for 10 days) were 195.7 ± 24.0 nM, 205.3 ± 24.9 nM and 205.4 ± 22.3 nM, respectively. Further, the “response rate (activated cells / total cells)” value in data set [1] (cultivation time 3 days) amounted to 29.9±2.5%; in data set [1] (cultivation time 5 days), 27.6±3.0%; in data set [1] (cultivation time 10 days), 28.1±4.2%. Also, the “normalized relative mRNA level of Ki67” value in data set [7] (day 3) was found to be 8.6±0.8 fold. Moreover, the “normalized relative mRNA level of SOX2” value in data set [7] (day 3) turned out to be 8.4±0.8 fold. Also, the “normalized relative mRNA level of nestin” value in data set [7] (day 3) was 11.7±1.1 fold. Besides, the NSE expression entry in data set [7] (days 3, 5 and 10) is on record as “approximately 0.1 fold”.
